Test results published in publication PMC6499725.

Target: propionyl-CoA synthase (PCS) from Erythrobacter sp. NAP1 (Erythrobacter sp. NAP1)
Experiment: crystal structure

propionyl-CoA synthase (PCS) from Erythrobacter sp. NAP1 (enzyme)
stoichiometry N: 2
